Positions of bridges follow the written chain, without caps; N, C: chain ends. Non-standard residues stand in square brackets, D forms with d. *: point of attachment. S5 = C=CCCC[C@](C)(N)C(=O)O; Nle = CCCC[C@H](N)C(=O)O; For = O=C*
Experiments:
[1] = biological target: T1, hDcn5^P (PONY domain of human DCUN1D5) (Homo sapiens, UniProt Q9BTE7 47-237); experiment: ITC, peptide titrated into Dcn PONY domain
T1 sequence: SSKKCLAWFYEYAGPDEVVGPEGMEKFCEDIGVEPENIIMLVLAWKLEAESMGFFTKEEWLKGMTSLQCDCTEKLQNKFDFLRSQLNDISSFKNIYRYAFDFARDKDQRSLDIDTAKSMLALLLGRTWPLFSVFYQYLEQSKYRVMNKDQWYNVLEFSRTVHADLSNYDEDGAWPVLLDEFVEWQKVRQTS
Protocol: (§1) Protein samples were buffer matched by desalting over a NAP-5 column (GE Healthcare) into 50 mM Hepes, 125 mM NaCl, 1 mM BME, pH 7.0 (ITC buffer). Peptides were dissolved by weight to a final concentration of 10 mM in ITC buffer and diluted further in ITC buffer as required for the experiments. […] The peptide ligands (4 mM) were constantly injected (1.5 μl). The interval time between each injection was 3 minutes and the duration of each injection was 3 seconds. […] Peptide ligands (250 μM) were constantly injected (2.5 μl). The interval time between each injection was three minutes and the duration of each injection was 5 seconds. […] The interval time between each injection was 3 minutes and the duration of each injection was 5 seconds. Obtained spectra were evaluated using Origin (V 7.0) to determine heats of binding and Kd values.

[2] = biological target: T2, hDcn1^P (potentiating neddylation / PONY domain of human Dcn1, DCUN1D1) (Homo sapiens, UniProt Q96GG9 62-259); experiment: ITC, peptide titrated into Dcn PONY domain
T2 construct: also called DCUN1D1^P; SCCRO PONY domain
Protocol: as §1

[3] = biological target: hDcn2^P (PONY domain of human DCUN1D2) (Homo sapiens, UniProt Q6PH85 62-259); experiment: ITC, peptide titrated into Dcn PONY domain
Protocol: as §1

[4] = biological target: T3, hDcn4^P (PONY domain of human DCUN1D4) (Homo sapiens, UniProt Q92564 102-292); experiment: ITC, peptide titrated into Dcn PONY domain
T3 sequence: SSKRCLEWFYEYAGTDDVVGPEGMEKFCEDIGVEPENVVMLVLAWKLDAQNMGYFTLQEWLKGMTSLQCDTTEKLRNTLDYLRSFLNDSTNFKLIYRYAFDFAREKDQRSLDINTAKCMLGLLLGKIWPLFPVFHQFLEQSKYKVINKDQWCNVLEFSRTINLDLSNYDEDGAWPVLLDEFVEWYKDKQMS
Protocol: as §1

[5] = biological target: T4, hDcn3^P (PONY domain of human DCUN1D3) (Homo sapiens, UniProt Q8IWE4 86-304); experiment: ITC, peptide titrated into Dcn PONY domain
T4 sequence: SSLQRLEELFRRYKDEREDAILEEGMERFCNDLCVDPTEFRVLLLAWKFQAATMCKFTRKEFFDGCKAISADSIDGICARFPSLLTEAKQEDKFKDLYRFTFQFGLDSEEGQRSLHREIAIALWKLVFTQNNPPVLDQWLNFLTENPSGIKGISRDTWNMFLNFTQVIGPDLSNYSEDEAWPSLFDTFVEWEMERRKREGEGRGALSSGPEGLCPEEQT
Protocol: as §1

[6] = biological target: T5, hDcn1^P (residues 62 to the C-terminal residue 259 of hDcn1, aka SCCRO or DCUN1D1) (Homo sapiens, UniProt Q96GG9 62-259); experiment: crystal structure
T5 construct: Expressed as a GST fusion in E. coli; GST released by TEV protease; also called DCUN1D1^P; PONY domain of hDcn1
Protocol: The crystals grew as multiple clusters. Single crystals of the complex were obtained by streak-seeding into 17% PEG1500, 0.1 M MIB pH 4.0. The crystals were soaked in step gradients for 1-5 minutes, with sequential soaks containing well solution supplemented with 10%, 20%, and 30% ethylene glycol prior to flash-freezing in liquid nitrogen. Reflection data were collected at beamline 8.2.2 at the Advanced Light Source.

[7] = biological target: T5, hDcn1^P (residues 62 to the C-terminal …); experiment: ITC; against Acetyl-hUbc12^1-26
Protocol: (§2) The formylated peptides lack the methyl portion of an acetyl, but retain the amide and are uncharged.
as §1

[8] = biological target: T6, yDcn1^P (potentiating neddylation (PONY) domain of S. cerevisiae Dcn1) (Saccharomyces cerevisiae, UniProt Q12395 70-269); experiment: ITC, peptide titrated into Dcn1^P; against the unacetylated peptide
T6 construct: NEDD8 co-E3; Expressed in E. coli
T6 sequence: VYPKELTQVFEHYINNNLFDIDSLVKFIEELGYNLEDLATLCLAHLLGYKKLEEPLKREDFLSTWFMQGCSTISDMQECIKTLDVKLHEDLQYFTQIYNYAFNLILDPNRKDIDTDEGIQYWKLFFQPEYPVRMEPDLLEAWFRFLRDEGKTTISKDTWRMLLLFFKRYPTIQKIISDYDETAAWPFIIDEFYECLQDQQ
Protocol: (§3) To gain insights into mechanistic roles of Ubc12 N-terminal acetylation, isothermal titration calorimetry (ITC) was used to quantify interactions with peptides corresponding to the N-termini of yeast or human Ubc12.
as §1

[9] = biological target: T5, hDcn1^P (residues 62 to the C-terminal …); experiment: as above
Protocol: as §3, §1

[10] = biological target: T7, yDcn1^P (potentiating neddylation / PONY domain of Saccharomyces cerevisiae Dcn1) (Saccharomyces cerevisiae, UniProt Q12395 70-269); experiment: ITC, peptide titrated into yDcn1^P
T7 construct: NEDD8 co-E3; Expressed in E. coli
T7 sequence: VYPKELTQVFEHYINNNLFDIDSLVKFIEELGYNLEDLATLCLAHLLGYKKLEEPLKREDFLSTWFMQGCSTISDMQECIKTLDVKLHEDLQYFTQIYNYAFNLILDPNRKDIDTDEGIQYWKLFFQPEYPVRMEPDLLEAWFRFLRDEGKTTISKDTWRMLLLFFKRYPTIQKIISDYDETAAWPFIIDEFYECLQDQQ
Protocol: as §2, §1

[11] = biological target: T6, yDcn1^P (potentiating neddylation …); experiment: ITC; against Acetyl-yUbc12^1-24
Protocol: as §1

[12] = biological target: T8, hDcn1^P (PONY domain of human Dcn1 / DCUN1D1 / SCCRO, residues 62 to 259) (Homo sapiens, UniProt Q96GG9 62-259); experiment: ITC, peptide titrated into hDcn1^P
T8 construct: NEDD8 co-E3; Expressed as a GST fusion in E. coli; GST was removed with TEV protease; also called DCUN1D1^P
Protocol: as §2, §1

[13] = biological target: T3, hDcn4^P (PONY domain of human DCUN1D4); experiment: ITC, two values in the cell, second value
Protocol: as §1

[14] = biological target: T3, hDcn4^P (PONY domain of human DCUN1D4); experiment: ITC, two values in the cell, first value
Protocol: as §1

T8 sequence (Q96GG9 62-259): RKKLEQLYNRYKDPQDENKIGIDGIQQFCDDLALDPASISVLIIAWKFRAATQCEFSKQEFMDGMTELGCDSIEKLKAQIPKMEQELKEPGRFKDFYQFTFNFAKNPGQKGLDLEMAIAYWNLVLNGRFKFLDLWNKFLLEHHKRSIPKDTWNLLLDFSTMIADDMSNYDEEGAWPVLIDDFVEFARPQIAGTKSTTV
T5 sequence (Q96GG9 62-259): as above
T2 sequence (Q96GG9 62-259): as above
hDcn2^P (PONY domain of human DCUN1D2), sequence (Q6PH85 62-259 limits assumed): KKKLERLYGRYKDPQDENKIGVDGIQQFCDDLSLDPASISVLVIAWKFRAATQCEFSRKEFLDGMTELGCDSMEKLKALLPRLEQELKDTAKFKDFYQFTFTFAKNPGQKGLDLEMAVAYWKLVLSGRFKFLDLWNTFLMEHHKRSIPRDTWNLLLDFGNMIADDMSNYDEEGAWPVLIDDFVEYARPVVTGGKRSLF

B1: yUbc12^Ac1-12 (NorLeu) 6, 10 (peptide)
peptide: Ac-[Nle]LKLR[S5]LQK[S5]KQ-NH2
modifications: staple 6-10
SMILES: CCCC[C@H](NC(C)=O)C(=O)N[C@@H](CC(C)C)C(=O)N[C@@H](CCCCN)C(=O)N[C@@H](CC(C)C)C(=O)N[C@@H](CCCNC(=N)N)C(=O)N[C@@]1(C)CCCC=CCCC[C@@](C)(C(=O)N[C@@H](CCCCN)C(=O)N[C@@H](CCC(N)=O)C(N)=O)NC(=O)[C@H](CCCCN)NC(=O)[C@H](CCC(N)=O)NC(=O)[C@H](CC(C)C)NC1=O
Kd [1]: 4780 nM | Kd [2]: 68 nM | Kd [3]: 75 nM | Kd [4]: 4300 nM | Kd [5]: 1760 nM

B2: Acetyl-hUbc12^1-15 (peptide)
peptide: Ac-MIKLFSLKQQKKEEE-NH2
notes: Peptide of the hCul1^WHB-hDcn1^P-Acetyl-hUbc12^1-15 crystal structure; also called N-terminally acetylated human Ubc12^1-15
binding result [6]: binds

B3: Formyl-hUbc12^1-26 (peptide)
peptide: For-MIKLFSLKQQKKEEESAGGTKGSSKK-NH2
SMILES: CC[C@H](C)[C@H](NC(=O)[C@H](CCSC)NC=O)C(=O)N[C@@H](CCCCN)C(=O)N[C@@H](CC(C)C)C(=O)N[C@@H](Cc1ccccc1)C(=O)N[C@@H](CO)C(=O)N[C@@H](CC(C)C)C(=O)N[C@@H](CCCCN)C(=O)N[C@@H](CCC(N)=O)C(=O)N[C@@H](CCC(N)=O)C(=O)N[C@@H](CCCCN)C(=O)N[C@@H](CCCCN)C(=O)N[C@@H](CCC(=O)O)C(=O)N[C@@H](CCC(=O)O)C(=O)N[C@@H](CCC(=O)O)C(=O)N[C@@H](CO)C(=O)N[C@@H](C)C(=O)NCC(=O)NCC(=O)N[C@H](C(=O)N[C@@H](CCCCN)C(=O)NCC(=O)N[C@@H](CO)C(=O)N[C@@H](CO)C(=O)N[C@@H](CCCCN)C(=O)N[C@@H](CCCCN)C(N)=O)[C@@H](C)O
notes: Synthetic peptide; also called N-terminally formylated human Ubc12 peptide; hUbc12^Formyl-1-26
fold change of Kd against the acetylated peptide [7]: ~9 fold

B4: hUbc12^Ac1-26 (peptide)
peptide: Ac-MIKLFSLKQQKKEEESAGGTKGSSKK-NH2
notes: Synthetic peptide of the N-terminus of human Ubc12; also called Acetyl-hUbc12^1-26
Kd [1]: 8600 nM | Kd [2]: 1500 nM | Kd [3]: 735 nM | Kd [4]: 10000 nM | Kd [5]: 10800 nM

B5: Acetyl-yUbc12^1-24 (peptide)
peptide: Ac-MLKLRQLQKKKQKENENSSSIQPN-NH2
notes: Synthetic peptide; also called yUbc12Ac1-24; N-terminally acetylated S. cerevisiae Ubc12^1-24
increase in affinity by N-terminal acetylation [8]: ~100 fold

B6: Acetyl-hUbc12^1-26 (peptide)
peptide: Ac-MIKLFSLKQQKKEEESAGGTKGSSKK-NH2
notes: Synthetic peptide; also called hUbc12Ac1-26
increase in affinity by N-terminal acetylation [9]: ~100 fold

B7: Formyl-yUbc12^1-24 peptide (peptide)
peptide: For-MLKLRQLQKKKQKENENSSSIQPN-NH2
SMILES: CC[C@H](C)[C@H](NC(=O)[C@H](CO)NC(=O)[C@H](CO)NC(=O)[C@H](CO)NC(=O)[C@H](CC(N)=O)NC(=O)[C@H](CCC(=O)O)NC(=O)[C@H](CC(N)=O)NC(=O)[C@H](CCC(=O)O)NC(=O)[C@H](CCCCN)NC(=O)[C@H](CCC(N)=O)NC(=O)[C@H](CCCCN)NC(=O)[C@H](CCCCN)NC(=O)[C@H](CCCCN)NC(=O)[C@H](CCC(N)=O)NC(=O)[C@H](CC(C)C)NC(=O)[C@H](CCC(N)=O)NC(=O)[C@H](CCCNC(=N)N)NC(=O)[C@H](CC(C)C)NC(=O)[C@H](CCCCN)NC(=O)[C@H](CC(C)C)NC(=O)[C@H](CCSC)NC=O)C(=O)N[C@@H](CCC(N)=O)C(=O)N1CCC[C@H]1C(=O)N[C@@H](CC(N)=O)C(N)=O
notes: Synthetic peptide
Kd [10]: 7460 nM | ΔH [10]: 2.82 kcal/mol | ΔS [10]: 33.4 cal/mol/deg

B8: Formyl-yUbc12^1-24 (peptide)
peptide: For-MLKLRQLQKKKQKENENSSSIQPN-NH2
SMILES: CC[C@H](C)[C@H](NC(=O)[C@H](CO)NC(=O)[C@H](CO)NC(=O)[C@H](CO)NC(=O)[C@H](CC(N)=O)NC(=O)[C@H](CCC(=O)O)NC(=O)[C@H](CC(N)=O)NC(=O)[C@H](CCC(=O)O)NC(=O)[C@H](CCCCN)NC(=O)[C@H](CCC(N)=O)NC(=O)[C@H](CCCCN)NC(=O)[C@H](CCCCN)NC(=O)[C@H](CCCCN)NC(=O)[C@H](CCC(N)=O)NC(=O)[C@H](CC(C)C)NC(=O)[C@H](CCC(N)=O)NC(=O)[C@H](CCCNC(=N)N)NC(=O)[C@H](CC(C)C)NC(=O)[C@H](CCCCN)NC(=O)[C@H](CC(C)C)NC(=O)[C@H](CCSC)NC=O)C(=O)N[C@@H](CCC(N)=O)C(=O)N1CCC[C@H]1C(=O)N[C@@H](CC(N)=O)C(N)=O
notes: Synthetic peptide; also called N-terminally formylated yeast Ubc12 peptide
fold change of Kd against the acetylated peptide [11]: ~17 fold

B9: Formyl-hUbc12^1-26 peptide (peptide)
peptide: For-MIKLFSLKQQKKEEESAGGTKGSSKK-NH2
SMILES: CC[C@H](C)[C@H](NC(=O)[C@H](CCSC)NC=O)C(=O)N[C@@H](CCCCN)C(=O)N[C@@H](CC(C)C)C(=O)N[C@@H](Cc1ccccc1)C(=O)N[C@@H](CO)C(=O)N[C@@H](CC(C)C)C(=O)N[C@@H](CCCCN)C(=O)N[C@@H](CCC(N)=O)C(=O)N[C@@H](CCC(N)=O)C(=O)N[C@@H](CCCCN)C(=O)N[C@@H](CCCCN)C(=O)N[C@@H](CCC(=O)O)C(=O)N[C@@H](CCC(=O)O)C(=O)N[C@@H](CCC(=O)O)C(=O)N[C@@H](CO)C(=O)N[C@@H](C)C(=O)NCC(=O)NCC(=O)N[C@H](C(=O)N[C@@H](CCCCN)C(=O)NCC(=O)N[C@@H](CO)C(=O)N[C@@H](CO)C(=O)N[C@@H](CCCCN)C(=O)N[C@@H](CCCCN)C(N)=O)[C@@H](C)O
notes: Synthetic peptide; also called hUbc12^Formyl-1-26
Kd [12]: 9710 nM | ΔH [12]: -4.89 kcal/mol | ΔS [12]: 5.79 cal/mol/deg

B10: yUbc12^Ac1-24 (peptide)
peptide: Ac-MLKLRQLQKKKQKENENSSSIQPN-NH2
notes: Synthetic peptide of the N-terminus of yeast Ubc12; also called Acetyl-yUbc12^1-24
Kd [13]: 13000 nM | Kd [1]: 2400 nM | Kd [2]: 311 nM | Kd [3]: 204 nM | Kd [5]: 3400 nM | Kd [14]: 1200 nM
